Results on five molecules are retold here after patent US20220251171A1, “APOLIPOPROTEIN E FRAGMENTS” (EISAI R&D MANAGEMENT CO., LTD., priority 2019, published 2022).

The subject of data set [1] is neurotoxic 12 kDa ApoE fragment. As to the kind of experiment: Western blot analysis of 12 kDa ApoE fragment production in rat hippocampal neurons expressing full-length human ApoE4. Format: cell-based. The conditions noted are these: rat hippocampal neurons infected with AAV-DJ full-length human ApoE4; treated at 11 DIV, collected at 14 DIV; concentration dependent; FIG. 14A. On the procedure:
(§1) Cell culture: The dissected hippocampi from fetuses obtained on embryonic day (E) 18 from timed pregnant Wistar rats (Charles River Laboratories) were digested using trypsinization and mechanical dissociation. The dissociated neurons were seeded at 1.0×10^5 cells/well in 24-well plate (Falcon). Infection of AAV-DJ with full-length human ApoE4 was performed at 7 days in vitro (DIV). 4-{4-[2-(3-methyl-4-oxo-3,4-dihydro-phthalazin-1-yl)-acetylamido]-benzyl}-piperazine-1-carboxylic acid tert-butyl ester (hereinafter also referred to as PH-002) (Merck) was treated at 4 days after infection (11 DIV). Sample collection for western blot and cytotoxicity analysis was performed at 7 days after infection (14 DIV).
Western blot analysis: Cells were lysed by RIPA buffer (50 mM Tris-HCl pH 7.6, 5 mM EDTA, 1 mM EGTA, 1% NP40, 0.25% sodium deoxycholate, 0.1 M NaCl, 0.5 mM PMSF) containing complete (EDTA-free) protease inhibitor cocktail (Roche) and PhosSTOP protein phosphatase inhibitor (Sigma), and sonicated. Sample Buffer Solution with Reducing Reagent (6×) (Nacalai Tesque) was added before SDS-PAGE. For SDS-PAGE, XV PANTERA MP Gel (DRC) 15% was used. For transfer, Trans-Blot Turbo (BIO-RAD) was used. For immunoblotting, iBind Western Systems (ThermoFisher Scientific) was used together with anti-ApoE PA5-27088 antibody (ThermoFisher Scientific). For detection, Fusion FX7 (Vilber Lourmat) was used.
Background: A western blot detects proteins with antibodies after separation by electrophoresis.

For data set [2], the system named is rat hippocampal neurons. The data set is described as follows: CytoTox-Glo Cytotoxicity Assay of treated rat hippocampal neurons. The format is cell-based. The conditions noted are these: conditioned medium of treated rat hippocampal neurons, 14 DIV; FIG. 14B. The method, then: as §1
Cytotoxicity analysis: Cytotoxicity of treated compound was evaluated by CytoTox-GIo™ Cytotoxicity Assay (Promega). In brief, 50 uL of conditioned medium and 50 uL of prepared CytoTox-GIo™ Cytotoxicity Assay reagent were mixed in 96-well white-walled plate (Sumitomo Bakelite). After incubation at room temperature for 15 min, luminescence was measured by SpectraMax iD5 (Molecular Devices).

The conditions of data set [3]: literature, Chang et al.; cited from earlier work.
Data set [4] relates to Neuro2A cells. The data set is described as follows: Mitochondrial respiration measurement (spare respiratory capacity) in vector-transfected Neuro2A cells. Format: cell-based. The conditions noted are these: Neuro2A cells expressing the fragment; FCCP respiration minus basal respiration; FIG. 13A. On the procedure: Cell culture: Neuro2A cells (ATCC) were seeded at 5.0×10^4 cells/well in a 24 well plate (Falcon) and cultured in D-MEM High Glucose (WAKO) containing 10% fetal bovine serum. Transfection of pAAV-CMV vectors encoding human ApoE4 (full-length) or the identified ApoE fragments (198-299, 199-299, 200-299) was done using Lipofectamine LTX and Plus Reagent (Invitrogen) on 1 day after seeding. 2 days later, vector-transfected cells were collected for Western blot analysis or seeded again at 2.0×10^4 cells/well in a Seahorse XF96 cell culture microplate (Agilent Technologies) 4 hours before mitochondrial respiration measurement.
(§2) Mitochondrial respiration measurement: Real-time measurement of oxygen consumption rates (OCR) was performed using an Extracellular Flux Analyzer XFe96 (Agilent Technologies). Before measurement, the culture medium was replaced by 37° C. pre-warmed XF Base Medium (Agilent Technologies) containing 10 mM sodium pyruvate (Sigma), 10 mM D-glucose (Sigma), 2 mM glutamine (Sigma). The pH of the measurement medium was adjusted to 7.4. The culture plates were incubated at 37° C. for 60 min prior to the assay. For analysis of mitochondrial function, XF Cell Mito Stress Test Kit (Agilent Technologies) was used. Following measurement of basal OCR, mitochondrial complex inhibitors were injected sequentially into each cell. The inhibitors were used at the following concentrations: oligomycin 1 μM; carbonyl cyanide 4-(trifluoromethoxy)phenylhydrazone (FCCP) 0.25 μM for Neuro2A cells, 2 μM for rat hippocampal neurons; rotenone/antimycin A 0.5 μM. OCR values were automatically calculated, recorded and plotted by the XFe96 software. Spare respiratory capacity was measured as (FCCP respiration—basal respiration).

Data set [5] concerns rat primary hippocampal neurons. The data set is described as follows: Mitochondrial respiration measurement (spare respiratory capacity) in AAV6-infected rat hippocampal neurons. The format is cell-based. The conditions noted are these: 7 days after AAV6 infection (14 DIV), FIG. 13B. The method, then: For assays using rat hippocampal neurons, the dissected hippocampi from fetuses obtained on embryonic day (E) 18 from timed pregnant Wistar rats (Charles River Laboratories) were digested using trypsinization and mechanical dissociation. The dissociated neurons were seeded at 1.5×10^4 cells/well in Seahorse XF96 cell culture microplate (Agilent Technologies) for mitochondrial respiration measurement or 1.0×10^5 cells/well in 24-well plate (Falcon) for Western blot analysis. Infection of AAV6 with full-length human ApoE4 or identified ApoE fragments (198-299, 199-299, 200-299) was performed at 7 days in vitro (DIV). Measurement of mitochondrial respiration or sample collection for Western blot analysis was performed at 7 days after infection (14 DIV).
as §2

The test system of data set [6] is Aβ. The conditions noted are these: literature, Pillot et al.; artificially-generated fragment; cited from earlier work.

For the molecule `Cn1nc(CC(=O)Nc2ccc(CN3CCN(C(=O)OC(C)(C)C)CC3)cc2)c2ccccc2c1=O` [PH-002, 4-{4-[2-(3-methyl-4-oxo-3,4-dihydro-phthalazin-1-yl)-acetylamido]-benzyl}-piperazine-1-carboxylic acid tert-butyl ester], in data set [1], the “amount of neurotoxic 12 kDa ApoE fragment” value was “reduction in the amount of neurotoxic 12 kDa ApoE fragment”. Moreover, in data set [2], the cytotoxicity entry is given as “no cytotoxicity”.

For the molecule ApoE4(1-299): full-length ApoE4, the “mitochondrial dysfunction and neurotoxicity” value in data set [3] is “did not bring about these effects”.

B1: 199-299: C-terminal fragment consisting of amino acids 199-299 of human ApoE (SEQ ID NO: 2) (protein)
chain: AGQPLQERAQAWGERLRARMEEMGSRTRDRLDEVKEQVAEVRAKLEEQAQQIRLQAEAFQARLKSWFEPLVEDMQRQWAGLVEKVQAAVGTSAAPVPSDNH
With B1, the spare respiratory capacity result in data set [4] and in data set [5] was “reduction in spare respiratory capacity” each time.

B2: 200-299: C-terminal fragment consisting of amino acids 200-299 of human ApoE (SEQ ID NO: 1) (protein)
chain: GQPLQERAQAWGERLRARMEEMGSRTRDRLDEVKEQVAEVRAKLEEQAQQIRLQAEAFQARLKSWFEPLVEDMQRQWAGLVEKVQAAVGTSAAPVPSDNH
For B2, the spare respiratory capacity entry in data set [4] and in data set [5] was “reduction in spare respiratory capacity” in each case. For the same molecule, in data set [6], the “inhibition of the fusogenic properties of Aβ” value is on record as “able to inhibit the fusogenic properties of Aβ”.

B3: 198-299: C-terminal fragment consisting of amino acids 198-299 of human ApoE (SEQ ID NO: 3) (protein)
chain: LAGQPLQERAQAWGERLRARMEEMGSRTRDRLDEVKEQVAEVRAKLEEQAQQIRLQAEAFQARLKSWFEPLVEDMQRQWAGLVEKVQAAVGTSAAPVPSDNH
Turning to B3, the spare respiratory capacity result in data set [4] and in data set [5] was “reduction in spare respiratory capacity” in each case.
